This is an account of results in article PMC9250508 (Nature Communications, 2022).

Experiment [1] addresses T1, SARS-CoV-2 spike glycoprotein, Wuhan D614, Δ19 C-terminal truncation, on ExpiCHO-S cells (SARS-CoV-2 BetaCoV/Wuhan-Hu-1/2019 …, UniProt P0DTC2).
T1 construct: also called Wuhan-D614 spike; Wuhan-1 D614
Kind of experiment: flow cytometry on cells. To be noted: one partner purified.

The target of experiment [2] is T2, SARS-CoV-2 spike glycoprotein, Omicron BA.1, Δ19 C-terminal truncation, on ExpiCHO-S cells (SARS-CoV-2, Omicron BA.1 (B.1.1.529), strain).
T2 construct: also called BA.1 spike
The experiment can be described thus: flow cytometry on cells. The conditions noted are these: one partner purified.

For experiment [3], the target named is T3, SARS-CoV-2 spike glycoprotein, Omicron BA.2, Δ19 C-terminal truncation, on ExpiCHO-S cells (SARS-CoV-2, Omicron BA.2, strain).
T3 construct: also called BA.2 spike
Kind of experiment: flow cytometry on cells. The conditions noted are these: one partner purified.

The target of experiment [4] is T4, SARS-CoV-2 BA.1 RBD (residues 319–537, C-terminal AviTag and 8xHisTag) (SARS-CoV-2, Omicron BA.1 (B.1.1.529), strain).
T4 construct: also called Omicron lineage RBD
Kind of experiment: BLI. The conditions noted are these: both partners purified.

The target in experiment [5] is T5, Purified SARS-CoV-2 BA.2 RBD protein (AcroBiosystem) (SARS-CoV-2, Omicron BA.2, strain).
T5 construct: also called Omicron lineage RBD; source: bought: AcroBiosystem
The experiment can be described thus: BLI. The conditions noted are these: both partners purified.

B1: VIR-7831 (the clinical form of S309-LS) (antibody, V domains shown)
VH: not shown
VL: EIVLTQSPGTLSLSPGERATLSCRASQTVSSTSLAWYQQKPGQAPRLLIYGASSRATGIPDRFSGSGSGTDFTLTISRLEPEDFAVYYCQQHDTSLTFGGGTKVEIK
notes: also called sotrovimab; clinical lead variant of S309-LS; copies: 2 + 2
With B1, the binding result in experiment [1], in experiment [2] and in experiment [3] was “binds” in each case.

B2: AZD1061 Fab (Fab, V domains shown)
VH: EVQLVESGGGLVKPGGSLRLSCAASGFTFRDVWMSWVRQAPGKGLEWVGRIKSKIDGGTTDYAAPVKGRFTISRDDSKNTLYLQMNSLKTEDTAVYYCTTAGSYYYDTVGPGLPEGKFDYWGQGTLVTVSS
VL: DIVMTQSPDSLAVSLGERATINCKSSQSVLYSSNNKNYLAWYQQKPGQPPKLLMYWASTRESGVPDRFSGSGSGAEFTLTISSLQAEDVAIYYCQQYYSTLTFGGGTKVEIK
notes: also called cilgavimab; COV2-2130
As for B2, the binding result in experiment [4] and in experiment [5] was “binds” each time.

B3: AZD8895 Fab (Fab, V domains shown)
VH: QMQLVQSGPEVKKPGTSVKVSCKASGFTFMSSAVQWVRQARGQRLEWIGWIVIGSGNTNYAQKFQERVTITRDMSTSTAYMELSSLRSEDTAVYYCAAPYCSSISCNDGFDIWGQGTMVTVSS
VL: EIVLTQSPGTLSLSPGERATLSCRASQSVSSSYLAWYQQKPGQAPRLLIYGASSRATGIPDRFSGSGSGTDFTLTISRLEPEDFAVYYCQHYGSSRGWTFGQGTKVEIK
notes: also called tixagevimab; COV2-2196
Turning to B3, the binding result in experiment [4] and in experiment [5] was “binds” each time.
